Measured values reported in publication PMC11889166.

Tests used:
[1] = biological target: EYFP-CD74minRTS (pEYFP-C1-CD74minRTS) (human) (UniProt P04233); assay: FRET or BRET; FLIM-FRET (TCSPC, two-photon microscope, FALCON) in fixed Huh-7 cells co-transfected with ECFP-CXCR4 (donor) and EYFP-CD74 (acceptor); donor-alone lifetime 2.52 ns used; also with MIF-2 stimulation before fixation (FRET efficiency increased)
[2] = biological target: EYFP-CD74minRTS (pEYFP-C1-CD74minRTS) (human) (UniProt P04233); assay: FRET or BRET; FLIM-FRET (TCSPC, two-photon microscope, FALCON) in fixed HEK293 cells co-transfected with ECFP-CXCR4 (donor) and EYFP-CD74 (acceptor)
[3] = biological target: EYFP-CD74minRTS (pEYFP-C1-CD74minRTS) (human) (UniProt P04233); assay: FRET or BRET; FLIM-FRET in live HEK293 cells co-transfected with ECFP-CXCR4 and EYFP-CD74, monitored at one-minute intervals during exposure to MIF-2 (4 nM, 10 min, 37 °C); MIF (8 nM) as comparison reduced the lifetime to a lesser extent

UniProt P04233, sequence (P04233 whole entry): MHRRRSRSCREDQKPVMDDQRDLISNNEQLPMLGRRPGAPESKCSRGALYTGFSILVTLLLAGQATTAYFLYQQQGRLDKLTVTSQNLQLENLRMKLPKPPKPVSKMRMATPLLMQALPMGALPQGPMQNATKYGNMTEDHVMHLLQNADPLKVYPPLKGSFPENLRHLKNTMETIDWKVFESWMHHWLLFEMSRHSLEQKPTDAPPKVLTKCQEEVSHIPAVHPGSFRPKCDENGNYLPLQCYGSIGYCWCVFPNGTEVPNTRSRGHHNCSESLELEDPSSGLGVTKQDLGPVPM

With “ECFP-tagged CXCR4 (pECFP-N1-CXCR4) (from UniProt P61073 1-352) (receptor)” the FRET efficiency [1] was 17 to 20%, the FRET efficiency [2] was 50% and the fluorescence lifetime of the donor ECFP-CXCR4 with the acceptor, after MIF-2 stimulation [3] was 2 ns.
